The test system of the data set is ScNsrR wild type, [4Fe-4S] holo (Streptomyces coelicolor). The data set can be described thus: EMSA. The note with it: EMSA: 10 mM Tris, 54 mM KCl, 0.3% glycerol, 1.32 mM glutathione, pH 7.2, on ice ~10 min; 5% PAGE in 1x TBE. In general terms: In EMSA bound probe runs differently from free probe, usually more slowly.

Where only a bound is given, the exact number is not on record here.

In the case of hmpA1 promoter probe, the K half ([4Fe-4S] protein:DNA ratio) was below 2.

(Values after PMC5411485.)
